Test results taken from paper PMC5134256 (Nature, 2016).

Target: the molecule itself
Test: crystal structure

B1: Cse2 subunit of E. coli Cascade, His6 tag cleaved (natural protein, E. coli K12, UniProt P76632 1-160, looked up)
chain: MADEIDAMALYRAWQQLDNGSCAQIRRVSEPDELRDIPAFYRLVQPFGWENPRHQQALLRMVFCLSAGKNVIRHQDKKSEQTTGISLGRALANSGRINERRIFQLIRADRTADMVQLRRLLTHAEPVLDWPLMARMLTWWGKRERQQLLEDFVLTTNKNA
With B1 the “stoichiometry N” value was 2.
